The target in this assay is C3b (biotinylated, captured site-specifically on a streptavidin chip) (UniProt P01024). As to the kind of experiment: SPR (Biacore 3000), single-cycle kinetics, biotinylated C3b on streptavidin chip, peptide as analyte, 1:1 Langmuir fit. On the technique in general: Surface plasmon resonance follows binding to a sensor surface in real time, without labels.

Usually Kd stands for the equilibrium constant for the complex coming apart. What is called koff is the rate constant with which the complex falls apart. A high value points to fast dissociation. A word on the kon: it is the rate constant with which the complex forms. Low values mean slow association, high ones fast association.

“Peptide 15: D-Phe-Ile-[Cys-Val-Trp(Me)-Gln-Asp-Trp-Sar-Ala-His-Arg-Cys]-mIle-NH2” displayed a Kd of 1.1 nM, a koff of 0.0026 s⁻¹ and a kon of 2.3e+06 M⁻¹ s⁻¹.
“Peptide 9: Tyr(Me)-Ile-[Cys-Val-Trp(Me)-Gln-Asp-Trp-Sar-Ala-His-Arg-Cys]-mIle-NH2”: the dissociation rate constant (koff) is 0.0026 s⁻¹ and the kon worked out at 2.3e+06 M⁻¹ s⁻¹.
In turn, “Peptide 16: D-Trp-Ile-[Cys-Val-Trp(Me)-Gln-Asp-Trp-Sar-Ala-His-Arg-Cys]-mIle-NH2” gave a Kd of 1.2 nM, a koff of 0.0024 s⁻¹ and an on-rate constant (kon) of 2e+06 M⁻¹ s⁻¹.
As for “Peptide 17: D-Cha-Ile-[Cys-Val-Trp(Me)-Gln-Asp-Trp-Sar-Ala-His-Arg-Cys]-mIle-NH2”, the Kd turned out to be 1.5 nM, the off-rate (koff) came out at 0.0027 s⁻¹ and the association rate constant (kon) is 1.8e+06 M⁻¹ s⁻¹.
“Peptide 18: D-Ala-Ile-[Cys-Val-Trp(Me)-Gln-Asp-Trp-Sar-Ala-His-Arg-Cys]-mIle-NH2” displayed a dissociation constant (Kd) of 2.5 nM, a dissociation rate constant (koff) of 0.0034 s⁻¹ and an on-rate (kon) of 1.4e+06 M⁻¹ s⁻¹.

(Values after patent US20210032291A1, “Compstatin Analogs With Improved Pharmacokinetic Properties” (The Trustees of the University of Pennsylvania, priority 2011, published 2021).)
